Results reported in patent US20120107329.

Target: recombinant human zonulin/pre-HP2 with a 6×His tag at the C-terminus, from baculovirus-infected Sf9 cells (UniProt P00738)
Sequence (P00738 19-406, tags left off): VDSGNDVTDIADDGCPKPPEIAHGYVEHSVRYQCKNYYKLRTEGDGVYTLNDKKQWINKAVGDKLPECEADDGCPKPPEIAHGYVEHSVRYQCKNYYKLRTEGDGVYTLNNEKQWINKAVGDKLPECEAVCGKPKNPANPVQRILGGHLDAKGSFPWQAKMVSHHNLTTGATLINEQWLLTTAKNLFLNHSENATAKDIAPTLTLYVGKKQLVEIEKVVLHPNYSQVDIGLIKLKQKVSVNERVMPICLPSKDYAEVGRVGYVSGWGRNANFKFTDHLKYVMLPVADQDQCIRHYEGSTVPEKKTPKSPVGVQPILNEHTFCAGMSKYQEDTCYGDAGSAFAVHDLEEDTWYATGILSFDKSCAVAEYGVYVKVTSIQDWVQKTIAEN

Substance	proteolytic cleavage, SDS-PAGE
matriptase	Matriptase, urokinase, thrombin, and plasma kallikrein did not cleave pre-HP2
plasma kallikrein	Matriptase, urokinase, thrombin, and plasma kallikrein did not cleave pre-HP2
plasmin	plasmin caused complete degradation of the protein
thrombin	Matriptase, urokinase, thrombin, and plasma kallikrein did not cleave pre-HP2
trypsin (intestinal serine protease; trypsin-agarose beads, Sigma T-1763)	treatment with the intestinal serine protease trypsin led to the appearance of two major bands that migrated with molecular weights compatible with the a2 and b subunits of zonulin
urokinase	Matriptase, urokinase, thrombin, and plasma kallikrein did not cleave pre-HP2
